Like-named read-outs stand apart in the source and are kept apart here.
T1: GST-hVEGF121 (human, UniProt P15692-9 27-147)
T1 construct: plate coating of the VEGF ELISAs; also called human VEGF; not shown: glutathione S-transferase (GST) fusion partner
T1 sequence (looked up): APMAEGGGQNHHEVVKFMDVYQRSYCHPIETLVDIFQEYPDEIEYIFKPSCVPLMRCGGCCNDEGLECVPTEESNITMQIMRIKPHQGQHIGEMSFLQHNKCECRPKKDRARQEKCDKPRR


Tests used:
Recombinant human bFGF [1] = target: T2, Recombinant human bFGF (human, UniProt P09038 143-288, limits assumed); test: ELISA, coated human bFGF
T2 construct: Bought (Sigma); also called hFGF-2; human basic fibroblast growth factor
T2 sequence (P09038 143-288 limits assumed): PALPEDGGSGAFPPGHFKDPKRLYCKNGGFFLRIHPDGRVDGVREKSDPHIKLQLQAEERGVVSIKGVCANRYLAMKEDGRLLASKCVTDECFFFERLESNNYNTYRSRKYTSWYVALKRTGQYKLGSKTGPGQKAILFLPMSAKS
Protocol: (§1) The 96-well plates were coated with 100 μL/well of a solution of GST-hVEGF121, GST-mVEGF120, or GST at a concentration of 20 μg/mL, or with a solution of VEGFKDR- at a concentration of 10 μg/mL, or hFGF-2 or mFGF-2 at a concentration of 5 μg/mL in 1×PBS for 16 hours at 4° C. After the plates were blocked with PBS-5% skim milk for one hour, 1:2 serial dilutions of the purified VHHs were added, starting at 2 μg/mL in PBS-0.5% skim milk. The plates were incubated for 1 hour at 37° C. and after several washes, the monoclonal antibody 9E10, specific for c-myc, was added. After one hour of incubation at 25° C. the plates were washed thoroughly. The binding of the fragment to the antigen in the solid phase was detected by the peroxidase activity using 100 μL/well of TMB. The reaction was stopped with 50 μL/well of stop solution, and absorbance values at 450 nm were determined in a microtiter plate reader.
SEQ ID NO: 18 and SEQ ID NO: 19, and the bivalent Nb-VV6 and Nb-FF2, with sequences identified as SEQ ID NO: 20 and SEQ ID NO: 21, were expressed and purified as described in the Example 1. In all cases, the purity and identity of the proteins were verified by SDS-PAGE 12% and anti-polyhistidine Western Blot. […] The experimental mass of the polypeptides and the arrangement of the disulfide bridges were checked by ESI/MS-MS. The experimental and theoretical mass, for each polypeptide coincided, with errors less than 0.0015% in all cases, and the formation of intramolecular bridges between C22-C101 and C168-C247 was verified. […] The biological activity of the polypeptides was evaluated by ELISA for recognition of the VEGF and bFGF antigens, and by their ability to displace VEGF and bFGF binding to their respective VEGFR2 and FGFR1 receptors. […] Similarly, it was shown that the ability to displace the binding of antigens by their receptors was not affected.

[2] = target: VEGF (soluble stimulus added to cell cultures); test: cell-based or functional assay
VEGF (soluble stimulus added to cell cultures), sequence (P15692 whole entry): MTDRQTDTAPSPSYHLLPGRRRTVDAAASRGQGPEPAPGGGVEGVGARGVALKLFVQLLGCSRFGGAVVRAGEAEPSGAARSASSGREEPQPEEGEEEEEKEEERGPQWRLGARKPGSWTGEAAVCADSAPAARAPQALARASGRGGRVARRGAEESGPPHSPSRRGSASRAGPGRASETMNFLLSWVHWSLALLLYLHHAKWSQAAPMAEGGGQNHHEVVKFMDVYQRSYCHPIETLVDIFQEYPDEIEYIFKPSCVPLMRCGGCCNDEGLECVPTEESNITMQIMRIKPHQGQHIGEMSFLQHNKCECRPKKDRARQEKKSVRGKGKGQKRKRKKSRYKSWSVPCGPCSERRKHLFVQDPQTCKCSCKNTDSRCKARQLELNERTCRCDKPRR

[3] = target: bFGF (soluble stimulus added to cell cultures); test: cell-based or functional assay
Recombinant human bFGF [4] = target: T2, Recombinant human bFGF; test: competition ELISA, coated bFGF, competitor Fc-FGFR1
Protocol: (§2) The ability of VHHs to hinder receptors for binding to their ligand was assessed by ELISA, for which 96-well plates (NUNC, USA) were coated with GST-hVEGF or bFGF and blocked as described in the previous section. Serial 1:2 dilutions of the purified VHHs, from […] to […], were added and the plates and incubated for 1 h at 37° C. In this step, some wells were left where only PBS-milk was added. […] After 45 min incubation at 37° C., plates were washed with PBS-0.05% Tween. To detect receptor binding, HRP-conjugated anti-human IgG antibody was added, diluted 1:5000 in PBS-0.5% milk. After incubation for 1 h at 37° C., the plates were washed with PBS-Tween, and TMB was added. The reaction was stopped after 10 min. Wells incubated with the receptors without the addition of the antibody fragments were taken as reference for maximum binding in the absence of competitor. In this assay, in the case of inhibition of the VEGF/VEGFR axis, the CIGB166a antibody fragment was used as a positive control, and an anti-FGF polyclonal antibody was used for the FGF/FGFR axis. The percentage of inhibition of receptor binding to its ligand was calculated as follows: […]

[5] = target: VEGF (soluble stimulus added to cell cultures); test: cell-based or functional assay; remark: listed apart in the source
GST-hVEGF121 [6] = target: T1, GST-hVEGF121; test: ELISA, coated GST-hVEGF
Protocol: as §1

[7] = target: Human VEGF (dendritic cell assay) (human, UniProt P15692-4 27-191, limits assumed); test: cell-based or functional assay
GST-hVEGF121 [8] = target: T1, GST-hVEGF121; test: competition ELISA, coated GST-hVEGF, competitor Fc-VEGFR2
Protocol: as §2
The biological effect of VEGF is a consequence of its binding to two fundamental receptors (VEGFR1 and VEGFR2), so for a polypeptide that binds to VEGF to be effective in the therapeutic setting, it must block these interactions (Shibuya, Cell Structure and Function, 2001: 26: 25-35). The ability of Nb-V1 to compete with receptors 1 and 2 for binding to its ligand (VEGF) was assessed by solid phase ligand competition ELISA, as described above.

GST-hVEGF121 [9] = target: T1, GST-hVEGF121; test: as above; remark: listed apart in the source
GST-hVEGF121 [10] = target: T1, GST-hVEGF121; test: ELISA, coated GST-hVEGF; remark: listed apart in the source
GST-hVEGF121 [11] = target: T1, GST-hVEGF121; test: ELISA, coated GST-hVEGF; remark: listed apart in the source
Protocol: as §1
SEQ ID NO: 18 and SEQ ID NO: 19, and the bivalent Nb-VV6 and Nb-FF2, with sequences identified as SEQ ID NO: 20 and SEQ ID NO: 21, were expressed and purified as described in the Example 1. […] The biological activity of the polypeptides was evaluated by ELISA for recognition of the VEGF and bFGF antigens, and by their ability to displace VEGF and bFGF binding to their respective VEGFR2 and FGFR1 receptors. […]

Recombinant human bFGF [12] = target: T2, Recombinant human bFGF; test: competition ELISA, coated bFGF, competitor Fc-FGFR1; remark: listed apart in the source
Recombinant human bFGF [13] = target: T2, Recombinant human bFGF; test: ELISA, coated human bFGF; remark: listed apart in the source

Row | Binder | EC50 (Recombinant human bFGF [1]) | IC50, proliferation of HDMEC cells +VEGF (5 ng/ml) [2] | IC50, proliferation of HDMEC cells +bFGF (10 ng/ml) [3] | IC50 (Recombinant human bFGF [4]) | PD1 expression (%) in CD8+ cells treated with VEGF, VHH 1 µg/mL [5] | PD1 expression (%) in CD8+ cells treated with VEGF, VHH 5 µg/mL [5] | PD1 expression (%) in CD8+ cells treated with VEGF, VHH 10 µg/mL [5] | EC50 (GST-hVEGF121 [6]) | CD86 (MFI) on dendritic cells +VEGF +LPS, VHH 1 µg/mL [7] | CD86 (MFI) on dendritic cells +VEGF +LPS, VHH 5 µg/mL [7] | CD86 (MFI) on dendritic cells +VEGF +LPS, VHH 10 µg/mL [7] | MHCII (MFI) on dendritic cells +VEGF +LPS, VHH 1 µg/mL [7] | MHCII (MFI) on dendritic cells +VEGF +LPS, VHH 5 µg/mL [7] | MHCII (MFI) on dendritic cells +VEGF +LPS, VHH 10 µg/mL [7] | IC50 (GST-hVEGF121 [8]) | IC50 (GST-hVEGF121 [9]) | EC50 (GST-hVEGF121 [10]) | fold decrease of EC50 against Nb-V1 (GST-hVEGF121 [11]) | IC50 (Recombinant human bFGF [12]) | EC50 (Recombinant human bFGF [13])
1 | Nb-FV1 (bispecific antibody, Bispecific tandem VHH (bFGF and VEGF); with c-myc and histidine tag) QVQLVESGGGLVQPGGSLRLSCAASGTEDGRLLTLGGSWFRQAPGQGLEAVAAIGAGDRGGATYYADSVKGRFTISRDNSKNTLYLQMNSLRAEDTAVYYCTALYERQPQLAATKVARKWGQGTLVTVSSAHHSEDPSSKAPKAPAQVQLVESGGGLVQPGGSLRLSCAASGNSAEDRLYNSYTWFRQAPGQGLEAVAAISSHFSAGLTYYADSVKGRFTISRDNSKNTLYLQMNSLRAEDTAVYYCEITSHASHNDAWSTPRTVWGQGTLVTVSSAAAGSEQKLISEEDLNSHHHHHH | 11.5 nM | 129 nM | 122 nM | 131 nM | 63% | 55% | 40% | 4.59 nM | 2030 MFI | 3200 MFI | 17500 MFI | 4980 MFI | 6000 MFI | 17500 MFI | 28.3 nM | – | – | – | – | –
2 | Nb-VV6\cmycH6 (VHH, Nb-VV6 without c-myc tracer peptide and histidine tag) QVQLVESGGGLVQPGGSLRLSCAASGNSAEDRLYNSYTWFRQAPGQGLEAVAAISSHFSAGLTYYADSVKGRFTISRDNSKNTLYLQMNSLRAEDTAVYYCEITSHASHNDAWSTPRTVWGQGTLVTVSSAHHSEDPSSKAPKAPAQVQLVESGGGLVQPGGSLRLSCAASGNSAQDRLYNSYTWFRQAPGQGLEAVAAISSHFSAGLTYYADSVKGRFTISRDNSKNTLYLQMNSLRAEDTAVYYCEITSHASHNDAWSTPRTVWGQGTLVTVSS | – | – | – | – | – | – | – | – | – | – | – | – | – | – | – | 5.23 nM | 1.78 nM | – | – | –
3 | Nb-VV6 (VHH, Bivalent monospecific tandem VHH for VEGF, hinge spacer with cysteines replaced by alanines; with c-myc and histidine tag) QVQLVESGGGLVQPGGSLRLSCAASGNSAEDRLYNSYTWFRQAPGQGLEAVAAISSHFSAGLTYYADSVKGRFTISRDNSKNTLYLQMNSLRAEDTAVYYCEITSHASHNDAWSTPRTVWGQGTLVTVSSAHHSEDPSSKAPKAPAQVQLVESGGGLVQPGGSLRLSCAASGNSAQDRLYNSYTWFRQAPGQGLEAVAAISSHFSAGLTYYADSVKGRFTISRDNSKNTLYLQMNSLRAEDTAVYYCEITSHASHNDAWSTPRTVWGQGTLVTVSSAAAGSEQKLISEEDLNSHHHHHH | – | 30 nM | > 6000 nM | – | 52% | 41% | 36% | 1.9 nM | 4200 MFI | 6520 MFI | 18000 MFI | 5110 MFI | 11200 MFI | 18700 MFI | 5.6 nM | – | – | 2 fold | – | –
4 | Nb-VF3\cmycH6 (bispecific antibody, Nb-VF3 without c-myc tracer peptide and histidine tag) QVQLVESGGGLVQPGGSLRLSCAASGNSAEDRLYNSYTWFRQAPGQGLEAVAAISSHFSAGLTYYADSVKGRFTISRDNSKNTLYLQMNSLRAEDTAVYYCEITSHASHNDAWSTPRTVWGQGTLVTVSSAHHSEDPSSKAPKAPAQVQLVESGGGLVQPGGSLRLSCAASGTEDGRLLTLGGSWFRQAPGQGLEAVAAIGAGDRGGATYYADSVKGRFTISRDNSKNTLYLQMNSLRAEDTAVYYCTALYERQPQLAATKVARKWGQGTLVTVSS | – | – | – | – | – | – | – | – | – | – | – | – | – | – | – | 28.4 nM | 4.84 nM | – | 137 nM | 11.5 nM
5 | Nb-FF2\cmycH6 (VHH, Nb-FF2 without c-myc tracer peptide and histidine tag) QVQLVESGGGLVQPGGSLRLSCAASGTEDGRLLTLGGSWFRQAPGQGLEAVAAIGAGDRGGATYYADSVKGRFTISRDNSKNTLYLQMNSLRAEDTAVYYCTALYERQPQLAATKVARKWGQGTLVTVSSAHHSEDPSSKAPKAPAQVQLVESGGGLVQPGGSLRLSCAASGTEDGRLLTLGGSWFRQAPGQGLEAVAAIGAGDRGGATYYADSVKGRFTISRDNSKNTLYLQMNSLRAEDTAVYYCTALYERQPQLAATKVARKWGQGTLVTVSS | – | – | – | – | – | – | – | – | – | – | – | – | – | – | – | – | – | – | 53.7 nM | 5.98 nM

Source: US20250326826A1 (CENTRO DE INGENIER A GEN TICA Y BIOTECNOLOG A, published 2025)
